The values that follow come from patent US20240294650A1 (Alector, published 2024).

In test [1] the target is T1, MerTK N-terminal ECD Half-and-half chimera (human).
T1 construct: tested as culture supernatant; also called MerTK N-term half-and-half chimera; MerTK N-terminal ECD (NT-Ig1-Ig2) + Axl C-terminal ECD (FN1-FN2-JM)
T1 chain: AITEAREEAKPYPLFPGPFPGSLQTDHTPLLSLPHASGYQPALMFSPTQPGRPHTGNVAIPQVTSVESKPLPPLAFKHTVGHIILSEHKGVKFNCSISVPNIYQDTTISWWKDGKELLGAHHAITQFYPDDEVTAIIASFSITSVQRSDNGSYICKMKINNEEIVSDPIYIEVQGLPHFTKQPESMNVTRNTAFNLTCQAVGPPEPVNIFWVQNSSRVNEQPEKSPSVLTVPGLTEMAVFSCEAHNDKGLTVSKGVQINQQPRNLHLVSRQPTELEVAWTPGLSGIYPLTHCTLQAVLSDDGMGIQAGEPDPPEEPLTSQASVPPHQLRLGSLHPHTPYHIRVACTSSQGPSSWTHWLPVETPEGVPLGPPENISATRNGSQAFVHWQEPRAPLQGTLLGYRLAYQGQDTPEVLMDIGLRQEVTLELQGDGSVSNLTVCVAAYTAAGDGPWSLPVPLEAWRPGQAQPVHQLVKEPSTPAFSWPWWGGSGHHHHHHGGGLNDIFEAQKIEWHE
Briefly: SPR, construct supernatant over immobilised Ab. On the procedure: (§1) Binding of anti-MerTK antibodies of the present disclosure to these domain-swapped chimera or deletion mutants was tested by Surface Plasmon Resonance (SPR) using Carterra LSA. Purified anti-MerTK antibodies were immobilized in duplicate on a HC30M chip (Carterra) by amine coupling, following the manufacturer's instructions (described previously).
(§2) Supernatants containing the constructs were diluted 1:1 with running buffer containing 0.5 mg/mL BSA (HBS-TE, Carterra; BSA, Sigma) and injected over the immobilized antibodies. The surface was regenerated with 10 mM Glycine pH2.0 after each construct injection. Sensorgrams were analyzed using Carterra Epitope software to identify patterns of construct binding. Loss of binding to MerTK constructs with domains deleted or swapped in from Axl and/or gain of binding to Axl constructs with MerTK domains swapped in were evaluated. Data from these studies were used to construct a domain binding map for anti-MerTK antibodies and their binding to various domains of human MerTK.

Test [2] has as its target T2, Full Axl (ECD domain of human Axl) (human, UniProt P30530 26-451).
T2 construct: also called human Axl ECD
T2 sequence: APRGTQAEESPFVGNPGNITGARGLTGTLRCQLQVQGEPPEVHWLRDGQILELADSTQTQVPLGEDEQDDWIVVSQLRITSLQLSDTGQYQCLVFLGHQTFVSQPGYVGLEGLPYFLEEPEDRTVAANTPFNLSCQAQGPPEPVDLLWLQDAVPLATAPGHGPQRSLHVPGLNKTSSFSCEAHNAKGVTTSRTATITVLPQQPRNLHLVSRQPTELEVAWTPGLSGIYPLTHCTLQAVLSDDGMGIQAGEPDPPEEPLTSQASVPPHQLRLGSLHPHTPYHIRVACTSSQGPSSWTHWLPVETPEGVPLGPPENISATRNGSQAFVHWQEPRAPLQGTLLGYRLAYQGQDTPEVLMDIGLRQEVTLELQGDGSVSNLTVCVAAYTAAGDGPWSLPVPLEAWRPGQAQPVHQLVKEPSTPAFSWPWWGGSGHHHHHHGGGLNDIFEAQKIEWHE
The experiment in a line: SPR (data not shown). On the procedure:
as §1, §2

The target in test [3] is T3, recombinant murine MerTK extracellular domain (mouse, UniProt Q60805 19-497).
T3 construct: also called Mouse MerTK; murine MerTK ECD; not shown: polyHis or TEVS/Thrombin/murine IgG2a-Fc tag
T3 sequence: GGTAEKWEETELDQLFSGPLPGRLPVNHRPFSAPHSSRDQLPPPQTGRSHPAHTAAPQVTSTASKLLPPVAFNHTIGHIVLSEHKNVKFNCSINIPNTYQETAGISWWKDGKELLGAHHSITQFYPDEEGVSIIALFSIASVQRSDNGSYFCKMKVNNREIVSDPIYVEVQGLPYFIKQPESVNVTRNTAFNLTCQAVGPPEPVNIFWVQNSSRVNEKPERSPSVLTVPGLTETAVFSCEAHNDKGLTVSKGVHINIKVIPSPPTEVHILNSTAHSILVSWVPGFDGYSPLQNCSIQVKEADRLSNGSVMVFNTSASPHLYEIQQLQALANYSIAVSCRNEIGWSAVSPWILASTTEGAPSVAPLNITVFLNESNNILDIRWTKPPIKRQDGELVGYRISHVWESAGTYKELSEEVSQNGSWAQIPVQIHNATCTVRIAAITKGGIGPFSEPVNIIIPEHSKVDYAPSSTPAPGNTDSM
Briefly: SPR Carterra LSA, Ab immobilised. The procedure:
Binding kinetics of anti-MerTK IgG1 antibodies of the present disclosure to human, cyno, and murine MerTK were evaluated using a Carterra LSA instrument (Carterra, Salt Lake City, UT). […] A HC200M sensor chip (Carterra) was activated using the single channel flow cell with a 7-minute injection of a 1:1:1 mixture of 100 mM MES pH 5.5, 100 mM sulfo-NHS, 400 mM EDC (all reconstituted in MES pH 5.5; 100 μl of each mixed in vial immediately before running assay). After switching to the multi-channel array flow cell, the antibodies were injected over the activated chip in three 96-spot arrays for 10 minutes each. The remaining unconjugated active groups on the chip were then blocked by injecting 1M Ethanolamine pH 8.5 (Carterra) for 7 minutes using the single channel flow cell. The resulting sensor chip contained three spots for each antibody, at three different densities. Two independent experiments were performed as follows, resulting in an N of between one and six determinations for each antibody. Spots that yielded less than 25 RU of analyte binding were excluded from further analysis.
After priming with running buffer (HBS-TE, Carterra) with 0.5 mg/ml BSA (Sigma), the immobilized anti-MerTK antibodies were tested for their ability to bind to several forms of recombinant MerTK extracellular domain, including human, cynomolgus, and mouse orthologs as described above. Estimates of affinity were generated by injecting each analyte over the entire antibody array using the single channel flow cell. MerTK analytes were diluted with running buffer, in a series of six, three-fold serial dilutions starting from 1 μM for human and cynomolgus MerTK, and 600 nM for mouse MerTK. Analytes were injected for 5 minutes, and dissociation was followed for 10 minutes. After each analyte injection, antibodies were regenerated with either Protein A/G Elution Buffer (Thermo) with 1M NaCl (Teknova), or with 10 mM Glycine pH 2.5. Three buffer blanks were run between each series (one species per series). Data were processed and analyzed using NextGenKIT high-throughput kinetics analysis software (Carterra).

In test [4] the target is T4, mouse MerTK overexpressed on CHO cells (mouse, UniProt Q60805 19-994).
T4 construct: whole, on cells; also called CHO-muMerTK OE
T4 sequence (looked up): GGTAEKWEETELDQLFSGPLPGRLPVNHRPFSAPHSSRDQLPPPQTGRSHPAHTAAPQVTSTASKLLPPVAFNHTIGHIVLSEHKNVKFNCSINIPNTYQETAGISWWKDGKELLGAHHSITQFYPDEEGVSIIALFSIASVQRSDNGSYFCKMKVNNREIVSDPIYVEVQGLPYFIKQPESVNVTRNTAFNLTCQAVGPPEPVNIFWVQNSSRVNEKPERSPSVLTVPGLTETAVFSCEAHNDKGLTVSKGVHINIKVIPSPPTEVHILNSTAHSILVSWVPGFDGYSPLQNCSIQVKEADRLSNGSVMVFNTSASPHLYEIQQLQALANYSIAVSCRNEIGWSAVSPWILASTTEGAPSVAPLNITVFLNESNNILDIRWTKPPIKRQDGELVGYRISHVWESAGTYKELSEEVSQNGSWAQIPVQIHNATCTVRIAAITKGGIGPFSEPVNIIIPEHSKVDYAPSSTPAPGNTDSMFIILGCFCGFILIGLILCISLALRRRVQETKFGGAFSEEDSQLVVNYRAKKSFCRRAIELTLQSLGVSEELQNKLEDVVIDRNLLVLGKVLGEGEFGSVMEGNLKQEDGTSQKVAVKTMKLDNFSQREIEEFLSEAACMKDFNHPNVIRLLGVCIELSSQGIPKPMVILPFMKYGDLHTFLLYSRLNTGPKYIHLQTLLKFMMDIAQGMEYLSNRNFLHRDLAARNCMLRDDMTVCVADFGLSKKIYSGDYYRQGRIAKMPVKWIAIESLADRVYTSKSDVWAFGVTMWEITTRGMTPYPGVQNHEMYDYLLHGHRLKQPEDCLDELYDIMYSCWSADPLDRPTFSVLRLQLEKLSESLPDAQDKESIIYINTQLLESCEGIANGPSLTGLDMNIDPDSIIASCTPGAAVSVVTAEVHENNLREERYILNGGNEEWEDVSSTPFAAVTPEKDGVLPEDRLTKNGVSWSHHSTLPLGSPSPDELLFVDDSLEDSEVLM
The experiment in a line: FACS, CHO-muMerTK OE cells, 10 ug/ml. The procedure:
(§3) To determine whether recombinant anti-human MerTK antibodies of the present disclosure bind to human MerTK endogenously expressed on SK-MEL-5 cells and CHO cells overexpressing mouse MerTK (CHO-muMerTK OE cells), as compared to A375 and parental CHO cells as negative controls, the following experiments were performed. SK-MEL-5 cells, A375 cells, CHO-muMerTK OE cells, and CHO parental cells were plated at 100,000 cells/well. Anti-MerTK antibodies were added to the cells at 10 μg/ml. After 60 minutes on ice, cells were washed and then stained with PE-conjugated goat anti-human IgG antibody (Southern Biotech Cat #2040-09, Birmingham, AL) in the presence of Fc block solution on ice for 30 minutes, and then washed twice with cold FACS buffer (2% FBS in PBS). Mouse anti-human MerTK-PE conjugated (Biolegend, Clone 590H11G1E3) or anti-mouse MerTK-PE conjugated (ThermoFisher, Clone DS5MMER) antibodies were used as positive controls. Stained cells were acquired on a BD FACS Canto II cytometer and the mean fluorescence intensity (MFI) was calculated with FlowJo.

Test [5] deals with T5, endogenous murine MerTK on bone marrow-derived macrophages (mouse, UniProt Q60805 19-994).
T5 construct: whole, on cells; MFI on MerTK KO BMDM subtracted; also called BMDM WT-KO
T5 sequence (looked up): T4 sequence (looked up)
Briefly: FACS, mouse BMDM, WT minus MerTK KO. The procedure: as §3
To confirm anti-MerTK antibody binding to endogenous murine MerTK, bone marrow-derived macrophages (BMDM) were isolated from MerTK wild type (WT) and knockout (KO) mice (The Jackson Laboratory, Cat #011122) using standard protocols. Briefly, cells isolated from the bone marrow were plated in the presence of 50 ng/ml M-CSF (R&D Systems, Cat #416-ML) for seven days to allow for differentiation into macrophages. Cell staining, FACs, and MFI were performed and calculated as described above.
(In general: In flow cytometry, cells or beads pass a laser one at a time.)

B1: MTK-217 (antibody, human IgG1, V domains shown)
VH: QVQLQQPGTEVVKPGASVKMSCRASGYTFTSYWITWVKQRPGQGLEWIGDIHPGSGINNYNEKFRSKATLTVDTSSSTVYMELSSLTSEDSAVYYCAKGGYYGSSYYVMDYWGQGTSVTVSS
VL: DILLTQSPAILSVSPGERVSFSCRASQTIGTSIHWYQQRTNDSPRLLIKYASESISGIPSRFSGSGSGTDFTLSINSVESEDIADYYCQQSNDWPYTFGGGTKLEIK
In the case of B1, the binding result in test [1] is “no binding”; in test [2], “no binding”; in test [3] it was “no binding (tested: analyte up to 600 nM)”.

B2: MTK-205 (antibody, human IgG1, V domains shown)
VH: EVQLQQSGPELVKPGASVKISCKTSGYTFTEYIMHWVKQSHGKSLEWIGGINPNNLGIIYNQKFKGKATLTVDKSSSTAYMELRSLTSEDSEVYYCARDGYFGFDYWGQGTTLKVSS
VL: DIVMTQSHKFMSTSVGDRVSITCKASQDVGTSVAWYQQKPGHSPKLLIYWTSTRRTGVPDRFTGSGSGTDFTLTISNVQSEDLADYFCHQYNSYPLTFGAGTKLELK
Consider B2, for which the MFI in test [4] was 240 MFI; in test [5], 737 MFI. Moreover, the binding result in test [1] and in test [2] was “no binding” in each case.
